Assay results taken from PMC8111768 (Immunity, 2021).

B1: recombinant murine FcγRIII (receptor)
chain: ALPKAVVKLDPPWIQVLKEDMVTLMCEGTHNPGNSSTQWFHNGRSIRSQVQASYTFKATVNDSGEYRCQMEQTRLSDPVDLGVISDWLLLQTPQRVFLEGETITLRCHSWRNKLLNRISFFHNEKSVRYHHYKSNFSIPKANHSHSGDYYCKGSLGSTQHQSKPVTITVQDPATTSSISLVWYHT
modifications: soluble ectodomain by convention (UniProt topology); tag not stated
B2: recombinant murine FcγRIV (receptor)
chain: GLQKAVVNLDPKWVRVLEEDSVTLRCQGTFSPEDNSIKWFHNESLIPHQDANYVIQSARVKDSGMYRCQTALSTISDPVQLEVHMGWLLLQTTKWLFQEGDPIHLRCHSWQNRPVRKVTYLQNGKGKKYFHENSELLIPKATHNDSGSYFCRGLIGHNNKSSASFRISLGDPGSPSMFPPWHQ
modifications: soluble ectodomain by convention (UniProt topology); tag not stated
B3: recombinant murine FcγRIIb (receptor)
chain: THDLPKAVVKLEPPWIQVLKEDTVTLTCEGTHNPGNSSTQWFHNGRSIRSQVQASYTFKATVNDSGEYRCQMEQTRLSDPVDLGVISDWLLLQTPQLVFLEGETITLRCHSWRNKLLNRISFFHNEKSVRYHHYSSNFSIPKANHSHSGDYYCKGSLGRTLHQSKPVTITVQGPKSSRSLP
modifications: soluble ectodomain by convention (UniProt topology); tag not stated

Assays:
Test in all cases: BLI
[1] = biological target: VIC16 REFORMab KWES (printed K236W/E333S) (mouse | human)
[2] = biological target: VIC16 REFORMab LALA (L234A/L235A) (mouse | human)
[3] = biological target: VIC16 REFORMab EFTEA (G236A/S267E/H268F/S324T/I332E) (mouse | human)
[4] = biological target: VIC16 REFORMab SDIEALGA (G236A/S239D/A330L/I332E) (mouse | human)

Binder	Kd [1]	Kd [2]	Kd [3]	Kd [4]
B1	20 nM	820000 nM	1100 nM	10 nM
B2	160 nM		120 nM	1 nM
B3	46000 nM		490 nM	130 nM
